The source of these data is publication PMC13246001, “Membrane binding controls the ATPase cycle and localization of MinD in Bacillus subtilis” (eLife, 2026).

Series [1] has as its target His-MinD (B. subtilis MinD, N-terminally His-tagged) (B. subtilis) (UniProt Q01464).
Substrate in series [2]: Nc1ncnc2c1ncn2[C@@H]1O[C@H](COP(=O)(O)OP(=O)(O)OP(=O)(O)O)[C@@H](O)[C@H]1O
Briefly: EnzChek phosphate release assay. It counts as biochemical, Bacillus subtilis. The settings on record: 10 µM MinD, E. coli total lipid liposomes 0.2 mg/ml, Mg2+, 37 °C, HEPES-KOH pH 7.2 protein/liposome buffer.

Series [3] deals with the molecule itself. Briefly: SEC; Superdex200 Increase 10/300 GL, 0.75 ml/min, buffer C (50 mM HEPES-KOH, 150 mM KCl, 10% glycerol, 0.1 mM EDTA, pH 7.2) with 0.4 mM TCEP and 0.2 mM Mg2+-ADP; column calibrated with a gel filtration standard.

Regarding “His-PDZ (soluble C-terminal PDZ domain of B. subtilis MinJ with N-terminal His-tag) (from UniProt O34375 1-397) (domain or fragment)”, the relative ATPase activity (EnzChek phosphate release) of 6 µM His-MinD in the presence of 1, 3 and 5 µM His-PDZ, 0.2 mg/ml liposomes, 2 mM Mg2+-ATP; His-MinD alone = 1; highest value at 3 µM (relative activity) in series [1] was 1.37.

B1: His-MinD (Bacillus subtilis subsp. subtilis str. 168) (protein)
chain: MGEAIVITSGKGGVGKTTTSANLGTALAILGKRVCLVDTDIGLRNLDVVMGLENRIIYDLVDVVEGRCKMHQALVKDKRFDDLLYLMPAAQTSDKTAVAPEQIKNMVQELKQEFDYVIIDCPAGIEQGYKNAVSGADKAIVVTTPEISAVRDADRIIGLLEQEENIEPPRLVVNRIRNHLMKNGDTMDIDEIVQHLSIDLLGIVADDDEVIKASNHGEPIAMDPKNRASIAYRNIARRILGESVPLQVLEEQNKGMMAKIKSFFGVRS
notes: full-length MinD, N-terminal His-tag kept (pET-28a NdeI/XhoI, plasmid NAP013), expressed in E. coli BL21(DE3)pLysS; monomer in ADP, dimerizes in ATPase cycle
B1: in series [2], the Km (as a rule, the concentration of substrate that gives half-maximal velocity) came to 173 µM and the kcat (as a rule, the maximal rate divided by the concentration of active sites) stood at 0.01008 s⁻¹.

B2: His-MinD-D40A (enzyme, B. subtilis, UniProt Q01464 1-268, looked up)
chain: MGEAIVITSGKGGVGKTTTSANLGTALAILGKRVCLVDTAIGLRNLDVVMGLENRIIYDLVDVVEGRCKMHQALVKDKRFDDLLYLMPAAQTSDKTAVAPEQIKNMVQELKQEFDYVIIDCPAGIEQGYKNAVSGADKAIVVTTPEISAVRDADRIIGLLEQEENIEPPRLVVNRIRNHLMKNGDTMDIDEIVQHLSIDLLGIVADDDEVIKASNHGEPIAMDPKNRASIAYRNIARRILGESVPLQVLEEQNKGMMAKIKSFFGVRS
notes: MinD of Bacillus subtilis 168 with D40A, made by site-directed mutagenesis of plasmid NAP013 (pET-28a-minD); Same construct as m1 but for the mutation; also called locked dimer; pET-28a-minD-D40A; source: E. coli BL21(DE3)/pLysS, purified (Ni-NTA, SEC) with Mg2+-ADP in the buffers; not shown: His-tag, N-terminal, kept
On to B2, for which, in series [3], the binding result is listed as “binds”.
